Laboratory results: patent publication US8846873B2, “Antibodies directed to GPNMB and uses thereof” (Celldex Therapeutics, Inc., priority 2004, dated 2014)
“Also recorded” adds a separate entry of the source. Structures can show the parent of a compound that is named as a salt. Values belong to the molecule of their own block, whether it stands above or below them. Where a SMILES comes first, the peptide text is derived from it. [ ]: non-standard residue; d: D form. The star is where a group is joined. Dolaproine = CO[C@@H]([C@@H]1CCCN1)[C@@H](C)C(=O)O; Dil = CC[C@H](C)[C@H](NC)[C@@H](CC(=O)O)OC; X1 = C[C@@H](N*)[C@@H](O)c1ccccc1; NMeV = CN[C@H](C(=O)O)C(C)C

Legend:
[1] = test system: UACC-62; experiment: Anti GPNMB antibody mediated indirect cell killing (saporin secondary antibody-toxin conjugate, colony count); type: cell-based, human; conditions: 5-FU at 600 uM, positive reagent control
Protocol: UACC-62, a GPNMB antigen expressing cell line, and TK10, a non-expressing cell line were plated onto flat bottom 96-well tissue culture plates (Becton Dickinson, Franklin Lakes, N.J., USA) at a density of 3000 cells per well. Once the cells reached ˜25% confluency, 100 ng/well of secondary antibody-toxin conjugate (goat anti-human IgG-saporin; Advanced Targeting Systems, San Diego, USA, HUM-ZAP; cat. # IT-22) was added. Anti-GPNMB MAbs 2.10.2, 2.22.1, 1.15.1 or isotype control mAb (pK16.3) were added to each well at a final concentration of 10 or 50 ng/mL. An anti-EGFR monoclonal antibody (MS-269-PABX, NeoMarkers, Fremont, Calif., USA) was used as a positive primary antibody control. Chemotherapy reagent 5-FU at 600 uM was used as a positive reagent control. On day 5, the cells were trypsinized, transferred to 6-well tissue culture plates and incubated at 37° C. Plates were examined daily and between 8-10 days, all plates were Giemsa stained and colonies were counted.

[2] = test system: SK-Mel-2 cells; experiment: Flow cytometry of CR011 binding to cell surface CG56972/GPNMB; design: species or system human; conditions: SK-MEL-2
Protocol: (§1) Flow Cytometry: Quantitative analysis of GPNMB expression on the cell surface of cell lines was determined by flow cytometry. […] Cells were fixed in 1% paraformaldehyde/PBS and examined on a Becton Dickinson FACSCalibur flow cytometer. Data analysis was performed with Becton Dickinson Cell Quest software version 3.3 and the geometric mean fluorescence intensity ratio (GMR) was determined for each cell type.
as §1, with “CG56972” for “GPNMB”, “the” for “the cell”, “cytometry (FACS).” for “cytometry.”

[3] = test system: SK-Mel-2 cells; experiment: ADCC assay with human PBMC (DELFIA EuTDA cytotoxicity); type: cell-based; conditions: human PBMC 30 to 100 fold; 2, 5, 10 μg/200 μl
Protocol: We next examined whether the CR0111gG1 mAb could induce ADCC in SK-MEL-2 cells in culture in the presence of human PBMC. Human PBMC were isolated from whole blood using a Ficoll-Plaque. Briefly, in a 50 mL tube, 15 mL of PBS was added to 20 mL of whole blood which was underlayed with 10 mL Ficoll-Plaque and the tube was centrifuged at 2000 RPM. Mononuclear cells were collected from the interface and washed 3 times with PBS. The ADCC assay was carried out in a 96 well plate using a fluorescence assay for cytolysis from Perkin-Elmer (DELFIA EuTDA Cytotoxic assay). The procedure is based on loading target cells with a fluorescence enhancing ligand (BATDA, bis (acetoxymethyl) terpyridine—dicarboxylate). The hydrophic ligand penetrates the membrane quickly. Within the cell the esterbonds are hydrolyzed to form a hydrophilic ligand (TDA, terpyridine—dicarboxylic acid) which can no longer pass through the membrane. After cytolysis the ligand is released and introduced to the Europium solution. The europium and the ligand form a highly fluorescent and stable chelate (EuTDA). Fluorescence intensity are recorded using excitation and emission wavelengths as λex=340 nm and λem=613 nm, respectively.

[4] = test system: SK-MEL-5 melanoma xenografts; experiment: Human SK-MEL-5 melanoma xenograft in athymic mice; type: in vivo
Protocol: (§2) Test Animals: Five- to 6-week old athymic mice (CD-1 nu/nu females), used for human tumor xenografts, were obtained from Harlan Laboratories (Indianapolis, Ind.). Animals were housed in specific pathogen-free conditions, according to the guidelines of the Association for Assessment and Accreditation of Laboratory Animal Care International (AAALAC International). Test animals were provided pelleted food and water ad libitum and kept in a room with conditioned ventilation (HVAC), temperature (22°±2° C.), relative humidity (55%±15%), and photoperiod (12 hr). All studies were carried out with approved institutional animal care and use protocols.
(§3) Human Melanoma Xenograft Models. The tumor inhibitory activity of the CR011-MMAE immunoconjugate was measured in an anti-tumor xenograft model using athymic mice, according to published methods (see Geran et al., Cancer Chemother. Rep. 3:1-104 (1972)). […] When tumors became established (10-20 days), the animals were pair-matched into groups (n=6 mice/group), and treatment was administered by intravenous injection (tail vein).
(§4) The SK-MEL-2 human melanoma (ATCC #HTB-68) was derived from a metastatic site (skin of thigh) of a person with malignant melanoma, and the SK-MEL-5 human melanoma (ATCC #HTB-70) was derived from a metastatic site (axillary lymph node) of a person with malignant melanoma (see Fogh et al., J. Natl. Cancer Inst. 59: 221-226 (1977)). Both cell lines were obtained from the American Type Culture Collection.
(§5) The effects of treatment were monitored by repetitive tumor measurements across 2 diameters with Vernier calipers; tumor size (in mg) was calculated using a standard formula, (W^2×L)/2, assuming a specific gravity of 1.0. Tumor size and body weights were assessed twice weekly. Mice were examined daily, however, and moribund animals were humanely euthanized if clinical indications of excessive pain or distress were noted (i.e., prostration, hunched posture, paralysis/paresis, distended abdomen, ulcerations, abscesses, seizures, and/or hemorrhages). Animals with tumors exceeding 2,000 mg were removed from the study and euthanized humanely.
Soon after the commencement of treatment with paclitaxel, however, significant tumor growth inhibition was observed (P≦0.039) at day 3 after treatment began, and this anti-tumor effect continued, producing 100% growth inhibition (stasis). The responses of SK-MEL-5-bearing test animals to vinblastine and paclitaxel were short-lived. After cessation of treatment at the maximally tolerated doses, tumors resumed rapid, progressive growth.

[5] = test system: SK-MEL-2 melanoma xenografts; experiment: Human SK-MEL-2 melanoma xenograft in athymic mice; type: in vivo
Protocol: as §2, §3, §4, §5
No apparent or statistically significant anti-tumor effects were observed. […] In preliminary studies, tumor regression was complete and was not followed by regrowth of the tumor despite lengthy observation periods (up to 200 days).

[6] = target: T1, GPNMB (Homo sapiens, UniProt Q14956); experiment: Binning of antibodies (Luminex competitive binding)
T1 construct: made in house; host or cells: HEK 293
T1 sequence (Q14956 23-492): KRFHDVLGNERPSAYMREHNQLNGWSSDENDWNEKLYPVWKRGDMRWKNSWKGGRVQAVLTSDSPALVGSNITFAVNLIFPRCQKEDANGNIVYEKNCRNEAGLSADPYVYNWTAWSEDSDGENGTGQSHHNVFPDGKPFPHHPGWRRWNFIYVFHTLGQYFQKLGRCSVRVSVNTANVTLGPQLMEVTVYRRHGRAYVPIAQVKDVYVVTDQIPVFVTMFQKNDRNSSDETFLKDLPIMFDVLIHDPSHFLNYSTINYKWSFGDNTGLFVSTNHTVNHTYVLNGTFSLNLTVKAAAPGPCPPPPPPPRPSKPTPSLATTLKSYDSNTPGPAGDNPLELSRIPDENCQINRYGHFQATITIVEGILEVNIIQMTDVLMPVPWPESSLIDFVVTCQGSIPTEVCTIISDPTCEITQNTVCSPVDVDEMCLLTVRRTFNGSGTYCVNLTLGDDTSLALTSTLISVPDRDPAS
Protocol: Certain antibodies, described herein were binned in accordance with the protocol described in U.S. Patent Application Publication No. 20030157730. MxhIgG conjugated beads are prepared for coupling to primary antibody. The volume of supernatant needed is calculated using the following formula: (n+10)×50 μL (where n=total number of samples on plate). Where the concentration is known, 0.5 μg/mL is used. Bead stock is gently vortexed, then diluted in supernatant to a concentration of 2500 of each bead per well or 0.5×10^5/mL and incubated on a shaker in the dark at RT overnight, or 2 hours if at a known concentration of […]. Following aspiration, 50 μL of each bead is added to each well of filter plate, then washed once by adding 100 μL/well wash buffer and aspirating. Antigen and controls are added to filter plate 50 μL/well then covered and allowed to incubate in the dark for 1 hour on shaker. Following a wash step, a secondary unknown antibody is added at 50 μL/well using the same dilution (or concentration if known) as is used for the primary antibody. The plates are then incubated in the dark for 2 hours at RT on shaker followed by a wash step. Next, 50 μL/well biotinylated mxhIgG diluted 1:500 is added and allowed to incubate in the dark for 1 hour on shaker at RT. Following a wash step, 50 μL/well Streptavidin-PE is added at 1:1000 and allowed to incubate in the dark for 15 minutes on shaker at RT.

Molecule: O=c1[nH]cc(F)c(=O)[nH]1 [Mab 5-FU, 5-FU]
killing of cells [1]: complete killing

Molecule: CR011 IgG1: CR011 mAb 1.15.1 switched to IgG1 constant region; heavy chain SEQ ID NO: 395
FACS shifts compared to isotype control mAbs [2]: comparable FACS shifts
ADCC / cytolysis of SK-MEL-2 cells [3]: mediated ADCC; also recorded: caused cytolysis of SK-MEL-2 cells in a dose dependent manner

Molecule: CC(=O)O[C@H]1C(=O)[C@@]2(C)[C@H]([C@H](OC(=O)c3ccccc3)[C@]3(O)C[C@H](OC(=O)[C@H](O)[C@@H](NC(=O)c4ccccc4)c4ccccc4)C(C)=C1C3(C)C)[C@]1(OC(C)=O)CO[C@@H]1C[C@@H]2O [paclitaxel, reference compound]
long-term, tumor-free survivors ([4]; paclitaxel group): One long-term, tumor-free survivor

Molecule: CC[C@H](C)[C@@H]([C@@H](CC(=O)N1CCC[C@H]1[C@H](OC)[C@@H](C)C(=O)N[C@H](C)[C@@H](O)c1ccccc1)OC)N(C)C(=O)[C@@H](NC(=O)[C@@H](NC)C(C)C)C(C)C [free monomethylauristatin E, monomethylauristatin E, reference compound] (H-[NMeV]V[Dil][Dolaproine]-X1)
tumor response ([5]; CR011-ONC-1, CR011-vcMMAE 5 mg/kg/treatment i.v. q4d x4, components at doses identical to those in the immunoconjugate): lack of responses; also recorded: lack of tumor growth inhibition

bin ([6]; bin assignment of Table 8): VIII
bin ([6]; bin assignment of Table 9, Cut-off = 90): VIII
binning signal (Table 8) ([6]; paired with 1.1): 91
binning signal (Table 8) ([6]; paired with 1.11): 10
binning signal (Table 9) ([6]; paired with 1.11): 19
binning signal (Table 8) ([6]; paired with 1.12): 15
binning signal (Table 9) ([6]; paired with 1.12): 21
binning signal (Table 8) ([6]; paired with 1.13): 13
binning signal (Table 9) ([6]; paired with 1.13): 5
binning signal (Table 8) ([6]; paired with 1.15): 0
binning signal (Table 9) ([6]; paired with 1.15): 0
binning signal (Table 8) ([6]; paired with 1.2): 79
binning signal (Table 9) ([6]; paired with 1.2): 90
binning signal (Table 8) ([6]; paired with 1.3): 71
binning signal (Table 9) ([6]; paired with 1.3): 51
binning signal (Table 8) ([6]; paired with 1.5): 15
binning signal (Table 9) ([6]; paired with 1.5): −9
binning signal (Table 8) ([6]; paired with 1.7): 21
binning signal (Table 9) ([6]; paired with 1.7): 17
binning signal (Table 8) ([6]; paired with 1.8): 8
binning signal (Table 9) ([6]; paired with 1.8): 12
binning signal (Table 8) ([6]; paired with 1.9): 12
binning signal (Table 9) ([6]; paired with 1.9): 19
binning signal (Table 8) ([6]; paired with BB): −19
binning signal (Table 9) ([6]; paired with BB): 59
binning signal (Table 8) ([6]; paired with xV5): 89
Molecule: 1.15: anti-GPNMB antibody 1.15 of the binning tables; line of the lead mAb 1.15 / CR011

Molecule: CC[C@]1(O)C[C@@H]2CN(CCc3c([nH]c4ccccc34)[C@@](C(=O)OC)(c3cc4c(cc3OC)N(C)[C@H]3[C@@](O)(C(=O)OC)[C@H](OC(C)=O)[C@]5(CC)C=CCN6CC[C@]43[C@@H]65)C2)C1 [vinblastine, vinblastine sulfate, reference compound]
anti-tumor effect ([5]; Study N-386, i.v., CR011-vcMMAE 20, 10, 5 or 2.5 mg/kg q4d x4, vinblastine […] q4d x4): very slight, but not significant, anti-tumor effect
anti-tumor effect ([4]; CR011-ONC-3, i.v., vs saline and PBS control groups): noticeable, but not significant tumor growth inhibition
